T1: FcγRIIa R (extracellular domain, C-terminal His tag) (human, UniProt P12318 34-217)
T1 construct: extracellular domain; also called FcgRIIa R type; 2aR; not shown: His tag attached to the C terminus
T1 sequence (looked up): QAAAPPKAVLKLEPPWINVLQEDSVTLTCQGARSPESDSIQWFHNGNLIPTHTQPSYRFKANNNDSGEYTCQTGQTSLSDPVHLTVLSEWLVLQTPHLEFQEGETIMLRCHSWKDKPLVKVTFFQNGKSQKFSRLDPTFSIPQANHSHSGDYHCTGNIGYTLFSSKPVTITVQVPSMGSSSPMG

T2: FcγRIIb (extracellular domain, C-terminal His tag) (human, UniProt P31994 43-217)
T2 construct: extracellular domain; also called FcgRIIb; 2b; not shown: His tag attached to the C terminus
T2 sequence (looked up): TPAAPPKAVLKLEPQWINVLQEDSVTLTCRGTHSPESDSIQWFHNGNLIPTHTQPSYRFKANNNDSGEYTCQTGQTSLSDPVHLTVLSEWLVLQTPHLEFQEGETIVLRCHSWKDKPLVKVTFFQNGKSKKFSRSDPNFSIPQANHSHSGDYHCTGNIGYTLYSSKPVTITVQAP

T3: FcγRIIb extracellular domain with C-terminal His tag (human, UniProt P31994 43-217)
T3 construct: extracellular domain; Expressed in FreeStyle293 cells; used as analyte in Biacore; also called FcgRIIb; 2b; not shown: C-terminal His tag
T3 sequence (looked up): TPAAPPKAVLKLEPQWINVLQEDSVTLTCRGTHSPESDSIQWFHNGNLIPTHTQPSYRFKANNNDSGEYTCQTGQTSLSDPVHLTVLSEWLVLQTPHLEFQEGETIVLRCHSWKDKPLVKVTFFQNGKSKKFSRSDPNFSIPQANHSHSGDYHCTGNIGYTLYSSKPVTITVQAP


Key:
[1] = target: T1, FcγRIIa R (extracellular domain, …); experiment: SPR (Biacore), antibody captured on antigen-peptide chip, FcγR as analyte; relative binding amount
Protocol: (§1) The heterodimerized antibodies He Abs in which one of the H chains was introduced with an alteration were assayed for their binding activities to each activating FcγR and inhibitory FcγR according to the method described in Example 4. […] The activating FcγRs in FIGS. 26, 27, 28, and 29 are FcγRIa, FcγRIIa (R), FcγRIIa (H), and FcγRIIIa, respectively.
(§2) Analysis of interaction between objective antibody and the FcγR was carried out using Biacore T100 (GE Healthcare). HBS-EP+ (GE Healthcare) was used as the running buffer, and the measurement temperature was set to 25° C. Chips produced by immobilizing the antigen peptide by the amine coupling method to a Series S Sencor Chip CM5 (GE Healthcare), or alternatively, chips produced by allowing preliminarily biotinylated antigen peptides to interact with and immobilize onto a Series S Sensor Chip SA (certified) (GE Healthcare) were used. Antibodies of interest were captured onto an antigen peptide-immobilized chip, and allowed to interact to each FcγR diluted with running buffer. To regenerate and repeatedly use the chip, the antibodies captured on the chip were washed off by reacting 10 mM glycine-HCl, pH 1.5.

[2] = target: T2, FcγRIIb (extracellular domain, …); experiment: as above
Protocol: as §1, §2

[3] = target: T3, FcγRIIb extracellular domain with …; experiment: SPR (Biacore), antibody captured on antigen-peptide chip, FcgRIIb as analyte; binding relative to GpH7-A5/GpH7-B3/GpL16-k0 (HeCon Ab) = 100

Row | Binder | He/Con_2aR [1] | He/Con_2b [2] | He/Con_2b [3]
1 | GpH7-A5/GpH7-B3 variant S337_02A/GpL16-k0 (antibody, human IgG1, kappa, Heterodimerized anti-glypican-3 IgG1; alteration in only one H chain (GpH7-B3 side); also called He Ab) heavy 1: not shown heavy 2: not shown light: DIVMTQSPLSLPVTPGEPASISCQASESLVHSNRNTYLHWYLQKPGQSPQLLIYKVSNRFSGVPDRFSGSGSGTDFTLKISRVEAEDVGVYYCSQNTHVPPTFGQGTKVEIERTVAAPSVFIFPPSDEQLKSGTASVVCLLNNFYPREAKVQWKVDNALQSGNSQESVTEQDSKDSTYSLSSTLTLSKADYEKHKVYACEVTHQGLSSPVTKSFNRGEC | 105 % of control (GpH7-A5/GpH7-B3/GpL16-k0 = 100) | 97.2 % of control (GpH7-A5/GpH7-B3/GpL16-k0 = 100) | –
2 | GpH7-A5/GpH7-B3 variant S337_06M/GpL16-k0 (antibody, human IgG1, kappa, Heterodimerized anti-glypican-3 IgG1; alteration in only one H chain (GpH7-B3 side); also called He Ab) heavy 1: not shown heavy 2: not shown light: DIVMTQSPLSLPVTPGEPASISCQASESLVHSNRNTYLHWYLQKPGQSPQLLIYKVSNRFSGVPDRFSGSGSGTDFTLKISRVEAEDVGVYYCSQNTHVPPTFGQGTKVEIERTVAAPSVFIFPPSDEQLKSGTASVVCLLNNFYPREAKVQWKVDNALQSGNSQESVTEQDSKDSTYSLSSTLTLSKADYEKHKVYACEVTHQGLSSPVTKSFNRGEC | 105 % of control (GpH7-A5/GpH7-B3/GpL16-k0 = 100) | 96.7 % of control (GpH7-A5/GpH7-B3/GpL16-k0 = 100) | –
3 | GpH7-A5/GpH7-B3 variant I336_18N/GpL16-k0 (antibody, human IgG1, kappa, Heterodimerized anti-glypican-3 IgG1; alteration in only one H chain (GpH7-B3 side); also called He Ab) heavy 1: not shown heavy 2: not shown light: DIVMTQSPLSLPVTPGEPASISCQASESLVHSNRNTYLHWYLQKPGQSPQLLIYKVSNRFSGVPDRFSGSGSGTDFTLKISRVEAEDVGVYYCSQNTHVPPTFGQGTKVEIERTVAAPSVFIFPPSDEQLKSGTASVVCLLNNFYPREAKVQWKVDNALQSGNSQESVTEQDSKDSTYSLSSTLTLSKADYEKHKVYACEVTHQGLSSPVTKSFNRGEC | 104 % of control (GpH7-A5/GpH7-B3/GpL16-k0 = 100) | 97.6 % of control (GpH7-A5/GpH7-B3/GpL16-k0 = 100) | –
4 | GpH7-A5/GpH7-B3 variant S337_11K/GpL16-k0 (antibody, human IgG1, kappa, Heterodimerized anti-glypican-3 IgG1; alteration in only one H chain (GpH7-B3 side); also called He Ab) heavy 1: not shown heavy 2: not shown light: DIVMTQSPLSLPVTPGEPASISCQASESLVHSNRNTYLHWYLQKPGQSPQLLIYKVSNRFSGVPDRFSGSGSGTDFTLKISRVEAEDVGVYYCSQNTHVPPTFGQGTKVEIERTVAAPSVFIFPPSDEQLKSGTASVVCLLNNFYPREAKVQWKVDNALQSGNSQESVTEQDSKDSTYSLSSTLTLSKADYEKHKVYACEVTHQGLSSPVTKSFNRGEC | 103 % of control (GpH7-A5/GpH7-B3/GpL16-k0 = 100) | 94.3 % of control (GpH7-A5/GpH7-B3/GpL16-k0 = 100) | –
5 | GpH7-A5/GpH7-B3 variant E333_07I/GpL16-k0 (antibody, human IgG1, kappa, Heterodimerized anti-glypican-3 IgG1; alteration in only one H chain (GpH7-B3 side); also called He Ab) heavy 1: not shown heavy 2: not shown light: DIVMTQSPLSLPVTPGEPASISCQASESLVHSNRNTYLHWYLQKPGQSPQLLIYKVSNRFSGVPDRFSGSGSGTDFTLKISRVEAEDVGVYYCSQNTHVPPTFGQGTKVEIERTVAAPSVFIFPPSDEQLKSGTASVVCLLNNFYPREAKVQWKVDNALQSGNSQESVTEQDSKDSTYSLSSTLTLSKADYEKHKVYACEVTHQGLSSPVTKSFNRGEC | 104 % of control (GpH7-A5/GpH7-B3/GpL16-k0 = 100) | 96.2 % of control (GpH7-A5/GpH7-B3/GpL16-k0 = 100) | –
6 | GpH7-A5/GpH7-B3 variant E333_09D/GpL16-k0 (antibody, human IgG1, kappa, Heterodimerized anti-glypican-3 IgG1; alteration in only one H chain (GpH7-B3 side); also called He Ab) heavy 1: not shown heavy 2: not shown light: DIVMTQSPLSLPVTPGEPASISCQASESLVHSNRNTYLHWYLQKPGQSPQLLIYKVSNRFSGVPDRFSGSGSGTDFTLKISRVEAEDVGVYYCSQNTHVPPTFGQGTKVEIERTVAAPSVFIFPPSDEQLKSGTASVVCLLNNFYPREAKVQWKVDNALQSGNSQESVTEQDSKDSTYSLSSTLTLSKADYEKHKVYACEVTHQGLSSPVTKSFNRGEC | 103 % of control (GpH7-A5/GpH7-B3/GpL16-k0 = 100) | 94.3 % of control (GpH7-A5/GpH7-B3/GpL16-k0 = 100) | –
7 | GpH7-A5/GpH7-B3 variant T335_08L/GpL16-k0 (He Ab) (antibody, human IgG1, kappa, Substitution in one H chain only; position in EU numbering; also called T335L heterodimerized antibody) heavy 1: not shown heavy 2: not shown light: DIVMTQSPLSLPVTPGEPASISCQASESLVHSNRNTYLHWYLQKPGQSPQLLIYKVSNRFSGVPDRFSGSGSGTDFTLKISRVEAEDVGVYYCSQNTHVPPTFGQGTKVEIERTVAAPSVFIFPPSDEQLKSGTASVVCLLNNFYPREAKVQWKVDNALQSGNSQESVTEQDSKDSTYSLSSTLTLSKADYEKHKVYACEVTHQGLSSPVTKSFNRGEC | – | – | 104 % of control
8 | GpH7-A5/GpH7-B3 variant T335_09D/GpL16-k0 (He Ab) (antibody, human IgG1, kappa, Substitution in one H chain only; position in EU numbering; also called T335D heterodimerized antibody) heavy 1: not shown heavy 2: not shown light: DIVMTQSPLSLPVTPGEPASISCQASESLVHSNRNTYLHWYLQKPGQSPQLLIYKVSNRFSGVPDRFSGSGSGTDFTLKISRVEAEDVGVYYCSQNTHVPPTFGQGTKVEIERTVAAPSVFIFPPSDEQLKSGTASVVCLLNNFYPREAKVQWKVDNALQSGNSQESVTEQDSKDSTYSLSSTLTLSKADYEKHKVYACEVTHQGLSSPVTKSFNRGEC | – | – | 108 % of control

Reference: patent US20180155451A1 (published 2018)
